Source: patent publication US20260144872A1
Values joined by “and” are separate entries in the source; they are usually repeats but may differ in a detail not shown here. Equal entries are not always repeated.

Molecular target: CD16 (activating FcγRIIIa, CD16a) on NK cells (UniProt P08637)
Assay: cell-based or functional assay

Sequence of UniProt P08637 (P08637 17-254 limits assumed): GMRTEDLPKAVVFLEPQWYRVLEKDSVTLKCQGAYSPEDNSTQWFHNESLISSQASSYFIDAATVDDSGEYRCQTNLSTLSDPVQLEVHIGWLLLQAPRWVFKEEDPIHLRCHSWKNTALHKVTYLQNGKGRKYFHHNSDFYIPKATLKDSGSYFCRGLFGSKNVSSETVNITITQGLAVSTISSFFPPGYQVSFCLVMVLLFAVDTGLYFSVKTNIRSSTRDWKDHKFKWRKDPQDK

a disintegrin and metalloproteinase domain-containing protein 17 (ADAM17) (from UniProt P78536 215-824)
CD16 positive % on NK cells after PMA (1 ug/mL, 1 hour), ADAM17 edited cells: 72.4% and 92%

a disintegrin and metalloproteinase domain-containing protein 17 (ADAM17) (from UniProt P78536 215-824) (enzyme)
CD16 positive % on NK cells after PMA (1 ug/mL, 1 hour), EP controls (ADAM17 intact): 0.62 to 6%
